*1 amine or outer side, *2 acyl side, *3 side chain or, on linkers, in order; H or OH if unused. Where no end group is shown, it is not given here. [ ]: non-standard residue; d: D form. αMe‑APPA = 2-amino-2-methyl-5-phenylpentanoic acid, C[C@@](CCCc1ccccc1)(N[*:1])C(=O)[*:2]; Bip(2'-Et-4'-OMe) = CCc1cc(OC)ccc1-c1ccc(C[C@H](N)C(=O)O)cc1; αMePhe(2,6-F2) = C[C@](N)(Cc1c(F)cccc1F)C(=O)O; αMePhe(2-F) = C[C@](N)(Cc1ccccc1F)C(=O)O; αMeW = C[C@](N)(Cc1c[nH]c2ccccc12)C(=O)O; αMeNle = CCCC[C@](C)(N[*:1])C(=O)[*:2]; αMe‑Bip(OMe) = α-methylated Bip(OMe); hhPhe = N[C@@H](CCCc1ccccc1)C(=O)O; hArg = N=C(N)NCCCC[C@H](N)C(=O)O; hCit = NC(=O)NCCCC[C@H](N)C(=O)O; αMeF = C[C@](N)(Cc1ccccc1)C(=O)O; Cit = NC(=O)NCCC[C@H](N)C(=O)O; αMeV = CC(C)[C@](C)(N)C(=O)O; αMeM = CSCC[C@](C)(N)C(=O)O; αMeP = C[C@@]1(C(=O)O)CCCN1; Nle = CCCC[C@H](N)C(=O)O; Orn = NCCC[C@H](N)C(=O)O; Ac5c = NC1(C(=O)O)CCCC1; Ac3c = NC1(C(=O)O)CC1; Aib = CC(C)(N)C(=O)O
T1: rat PTH-1R (rat PTHR endogenously expressed on UMR-106 rat osteosarcoma cells) (rat, UniProt P25961 27-591)
T1 sequence (looked up): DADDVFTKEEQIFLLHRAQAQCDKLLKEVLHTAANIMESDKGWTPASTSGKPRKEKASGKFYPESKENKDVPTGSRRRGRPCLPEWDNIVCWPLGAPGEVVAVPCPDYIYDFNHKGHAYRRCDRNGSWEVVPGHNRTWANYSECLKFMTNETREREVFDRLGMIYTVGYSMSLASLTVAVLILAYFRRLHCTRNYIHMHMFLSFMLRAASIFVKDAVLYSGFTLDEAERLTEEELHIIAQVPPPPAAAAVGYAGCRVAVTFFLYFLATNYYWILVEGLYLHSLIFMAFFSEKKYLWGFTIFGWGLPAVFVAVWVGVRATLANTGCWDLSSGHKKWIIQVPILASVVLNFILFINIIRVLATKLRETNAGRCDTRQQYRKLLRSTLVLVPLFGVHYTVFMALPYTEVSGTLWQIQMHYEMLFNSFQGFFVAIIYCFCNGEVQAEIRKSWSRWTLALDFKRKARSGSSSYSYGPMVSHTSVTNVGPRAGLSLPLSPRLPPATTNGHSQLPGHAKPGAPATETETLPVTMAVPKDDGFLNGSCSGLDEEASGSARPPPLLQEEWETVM


Molecular target: T1, rat PTH-1R (rat PTHR endogenously …)
Assay: cell-based or functional assay

Binder	cAMP released with respect to control, 1 nM peptide, UMR-106 cells	cAMP released with respect to control, 10 nM peptide, UMR-106 cells	cAMP released with respect to control, 100 nM peptide, UMR-106 cells
[Aib]V[Ac5c]EIQ[αMePhe(2-F)][Nle]HQ[hArg]AK[αMeF] [Seq. ID. 30]	19 percent of control	51 percent of control	80 percent of control
[Ac3c]V[Aib]EIQ[αMePhe(2,6-F2)][Nle]HQ[hArg][Aib]K[αMeF] [Seq. ID. 41]	26 percent of control	79 percent of control	97 percent of control
[Ac3c]V[Aib]EIQ[αMePhe(2,6-F2)][Nle]HQ[hArg][Aib][Aib][αMePhe(2-F)] [Seq. ID. 174]	31 percent of control	72 percent of control	100 percent of control
[Ac5c]V[Aib]EIQ[αMePhe(2,6-F2)][Nle]HQ[hArg]AK[αMeF] [Seq. ID. 49]	16 percent of control	56 percent of control	73 percent of control
[Aib]V[Aib]EIQ[αMePhe(2,6-F2)][Nle]HQ[hArg][Aib][Cit][αMePhe(2-F)] [Seq. ID. 132]	29 percent of control	82 percent of control	101 percent of control
[Ac3c]V[Aib]EIQ[αMePhe(2,6-F2)][Nle]HQ[hArg][αMeP]K[αMePhe(2,6-F2)] [Seq. ID. 110]	12 percent of control	39 percent of control	72 percent of control
[Aib]V[Ac5c]EIQ[αMePhe(2,6-F2)][Nle]HQ[hArg][Aib][Cit][αMePhe(2,6-F2)] [Seq. ID. 156]	31 percent of control	89 percent of control	106 percent of control
[Ac3c]V[Aib]EIQ[αMePhe(2-F)][Nle]HQ[hArg][αMeP]K[αMePhe(2-F)] [Seq. ID. 59]	19 percent of control	66 percent of control	84 percent of control
[Ac5c]V[Ac5c]EIQ[αMePhe(2-F)][Nle]HQ[hArg][αMeP]K[αMePhe(2-F)] [Seq. ID. 65]	34 percent of control	82 percent of control	104 percent of control
[Aib]V[Ac5c]EIQ[αMePhe(2,6-F2)][Nle]HQ[hArg][αMeP]K[αMePhe(2-F)] [Seq. ID. 78]	23 percent of control	73 percent of control	93 percent of control
[Aib]V[Aib]EIQLMHQ[hArg][Aib]K[αMeF] [Seq. ID. 9]	16 percent of control	41 percent of control	52 percent of control
[Aib]V[Aib]EIQ[αMePhe(2-F)][Nle]HQ[hArg][αMeP]K[αMePhe(2,6-F2)] [Seq. ID. 91]	42 percent of control	101 percent of control	110 percent of control

Other lines, results leading:

cAMP released with respect to control, 1 nM peptide, UMR-106 cells	cAMP released with respect to control, 10 nM peptide, UMR-106 cells	cAMP released with respect to control, 100 nM peptide, UMR-106 cells	Binder
26 percent of control	67 percent of control	81 percent of control	V[Ac3c]V[Aib]EIQL[αMeM]HQ[hArg]A[hArg][αMeW][αMe‑APPA] [Seq. ID. 950]
82 percent of control	109 percent of control	110 percent of control	[Ac5c]V[Aib]EIQ[αMePhe(2,6-F2)][Nle]HQ[hArg]A[Cit][Bip(2'-Et-4'-OMe)][hhPhe] [Seq. ID. 813]
19 percent of control	42 percent of control	59 percent of control	[Aib]V[Aib]EIQ[αMePhe(2,6-F2)][Nle]HQ[hCit][Aib][αMePhe(2,6-F2)][Bip(2'-Et-4'-OMe)][hhPhe] [Seq. ID. 872]
38 percent of control	102 percent of control	117 percent of control	V[Ac3c]V[Aib]EIQL[αMeNle]HQ[hArg]A[hArg][αMePhe(2-F)][αMe‑APPA] [Seq. ID. 935]
16 percent of control	41 percent of control	52 percent of control	V[Ac5c]V[Aib]EIQL[αMeNle]HQ[hArg]A[hArg][Bip(2'-Et-4'-OMe)][αMe‑APPA] [Seq. ID. 925]
38 percent of control	99 percent of control	106 percent of control	[Ac5c]V[Aib]EIQL[Nle]HQ[αMePhe(2,6-F2)]A[Aib][Bip(2'-Et-4'-OMe)][hhPhe] [Seq. ID. 799]
14 percent of control	48 percent of control	66 percent of control	[Aib]V[Aib]EIQ[αMePhe(2,6-F2)][Nle]HQ[hArg][Aib][Cit][Bip(2'-Et-4'-OMe)][hhPhe] [Seq. ID. 820]
39 percent of control	104 percent of control	120 percent of control	V[Aib]V[Aib]EIQL[Nle]HQ[hArg]A[hArg][Bip(2'-Et-4'-OMe)][αMe‑APPA] [Seq. ID. 905]
22 percent of control	50 percent of control	70 percent of control	[Aib]V[Aib]EIQ[αMePhe(2,6-F2)][Nle]HQ[hCit]A[Cit][Bip(2'-Et-4'-OMe)][hhPhe] [Seq. ID. 860]
29 percent of control	52 percent of control	69 percent of control	[Aib]V[Aib]EIQL[αMeM]HQ[hArg]A[hArg][αMeW][hhPhe] [Seq. ID. 942]
31 percent of control	72 percent of control	100 percent of control	[Aib]V[Aib]EIQ[αMePhe(2,6-F2)][Nle]HQ[αMePhe(2,6-F2)][Aib][Aib][Bip(2'-Et-4'-OMe)][hhPhe] [Seq. ID. 886]
32 percent of control	74 percent of control	100 percent of control	[Ac5c]V[Aib]EIQ[αMePhe(2,6-F2)][Nle]HQ[Orn][Aib][αMePhe(2,6-F2)][Bip(2'-Et-4'-OMe)][hhPhe] [Seq. ID. 841]
18 percent of control	51 percent of control	72 percent of control	[αMeV][Ac5c]V[Aib]EIQL[αMeM]HQ[hArg]A[hArg][Bip(2'-Et-4'-OMe)][αMe‑APPA] [Seq. ID. 926]
38 percent of control	91 percent of control	120 percent of control	[Aib]V[Aib]EIQL[Nle]HQ[hArg]A[hArg][αMe‑Bip(OMe)][hhPhe] [Seq. ID. 899]
36 percent of control	88 percent of control	116 percent of control	[αMeV][Ac5c]V[Aib]EIQL[αMeM]HQ[hArg]A[hArg][αMeW][αMe‑APPA] [Seq. ID. 954]

Source: US8383581B2, “Short-chain peptides as parathyroid hormone (PTH) receptor agonist” (Cadila Healthcare Limited, priority 2009, dated 2013)
